The results in this text go back to the DeepSol protein solubility set.

This series in a line: soluble on expression in E. coli; label from the status in PepcDB or PDB records.
As for “MEGNGSVDMFSEVLENQFLQAAKLVENHLDSEIQKLDQIGEDELELLKEKRLAALRKAQQQKQEWLSKGHGEYREIGSERDFFQEVKESEKVVCHFYRDTTFRCKILDRHLAILAKKHLETKFLKLNVEKAPFLCERLRIKVIPTLALLRDGKTQDYVVGFTDLGNTDDFTTETLEWRLGCSDVINYSGNLMEPPFQSQKKFGTNFTKLEKKTIRGKKYDSDSDDD”, the “soluble on expression in E. coli” value is reported as “soluble”.
As for “MNRFSGKSVIVTGSSSGIGRATAVLFAKYGAQVTITGRDAGKLEATKKKMLKVMKNPENVCVVVANLTDSDGQDEIVQSALDAFGRIDVLVNNAGANVVDGTFNTDQSTELYHKTFQINFEAVIEMVKKTKNHLIESKGEIVNVSSVAAGPQALAPSPYYAASKAALDQYTRCVALDLILQGVRVNSVSPGVVTSGFLGAMGMSEQVQKQIEENFTSNRACIPAGVCGKPEDIAELIIFLADRKRSSYIIGQSIVADGGTSLVSGLTAQNIQRNN”, the entry is “not soluble”.
“MAKTLAQGRKPGSGRKPGKGKTLREGRKPGSGRRRRQDTGGKETDGSQQDQESRLISSRDMEAVDALRELTHSPSSHSAHNSSAAPPPHAAAASTSLPPSLDYTHQSF”: the “soluble on expression in E. coli” value is given as “soluble”.
For “MSDVATLESFRLADSFLPVGTYTVSYGLEQFIQDDRVEDATDLEGLLSTYLRRQIGPAELVALRAAHAAATDGDIEAICHADQRLSAVTLAAEFRESAQQSGDRLLSLQTELRDEALLNRYAERVDADDAPGNYAVVLGVATGLADVAVREACLLCCHGFVTGLLGAAQRLLSLGHTDAQRILNDLQPVMTAAVDDSADRGIDEMTPFAPLVDVLAAEHERAERRLFASLEHHHHHH”, the “soluble on expression in E. coli” value is listed as “not soluble”.
As for “MSVNPFFDPRTLGEMVFGDNGRLDREYVPISENNDDLSDCRNEIVDTHEKFSVNLNVPDVKPEELKINLEGRKLSIKAEHQEIENDNISTTQTYSKSIVLPEDVDVTHLSSNLSEDGKLLIEVPKVEAKKTNFFGFLSKFRCMPESQ”, the “soluble on expression in E. coli” value is “not soluble”.
As for “GLPARSSSISNTNRTGENPMITPIISSNLGLKHRVTLRKATLASLMQSLSGESSNRVMWNDRYDTLLIARDPREIKNAIEKSVTDFGGLENYKELTGGADPFALMTPVCGLSANNIFKLMTEKDVPIDPTSIEYLENTSFAEHVNTLDSHKNYVVIVNDGRLGHKFLIDLPALTQGPRTAYIIQSDLGGGALPAVRVEDWISRRGSDPVSLDELNQLLSKDFSKMPDDVQTRLLASILQIDKDPHKVDIKKLHLDGKLRFASHEYDFRQFQRNAQYVAGLG”, the “soluble on expression in E. coli” value is reported as “soluble”.
As to “HHHHHHESDDDDKLAFGAIQLDGDGNILQYNAAEGDITGRDPKQVIGKNFFKDVAPCTDSPEFYGKFKEGVASGNLNTMFEYTFDYQMTPTKVKVHMKKALSGDSYWVFVKRV”, the “soluble on expression in E. coli” value is recorded as “soluble”.
Regarding “MIITLFVMVSGNKVKYEGSGKSGLWMSNLEKSDKTSIGPNYFLNLYWQGSKKEEKWTVVERITLYVDGEKYQDDNVDEYDLSEYTGDEMPGGGRMEDHISTFDYMPEDEVIGHDVLVKVEWRTGQKKQTEAIKLHKKPWYKKLEHHHHHH”, the “soluble on expression in E. coli” value is “not soluble”.
On to “MESVPSPRRVVLTPGARRALDAAGRLFYERGIHAVGVDLIAAEAGVTKKTLYDRFGSKEQIVVEYLADRDERWRAFLAGHLDTAGDSPGRRLTAIFDASREWTAENSAKGCSMVNAHAEISDPAHPAYAVIVGQKRWMLDLFTGVCRDASVRDPETLARTVMLLHEGALVSHGLQVFPEAVRLASDQASALLAAAAGPAR”, for which the “soluble on expression in E. coli” value was “not soluble”.
Take “MNQLIFDFAAHDYPSFDKFLGTENAELVYVLRHKHGQFIYVWGEEGAGKSHLLQAWVAQALEAGKNAAYIDAASMPLTDAAFEAEYLAVDQVEKLGNEEQALLFSIFNRFRNSGKGFLLLGSEYTPQQLVIREDLRTRMAYCLVYEVKPLTDQEKIDALASMAAARQVTVDSEIFEYLLKHWRRDMDSLMMMLDTLDNYAVTMGKRITLPLLRQLLKQQETQLEHHHHHH”: the “soluble on expression in E. coli” value is given as “soluble”.
To “MAQVGETEVVAGNVRDIVNRLSRDMTNRNPFTVHQQVERRAPPPQPQAQIYVATYAYSSKQDDELSFVVGDLIELISDVEDGWSKGKLKSTGAVGMFPTNFVTLKPTPSTSAAAVAPAASASTSAGSAARTPAKSIGSEVVMRSEPKAIDRTPSTIISDPAPVLKALETKFSSTFASSAASASTDAETTKTKEMARVKFVYNPQHDDELALKEIDMLINITNKNCGDAGWFEGELHGKKGLFPDNFVELVQVPLGTESGARHGSISRQATLTFVSHKPPPVNPPQPAVPPKPAKISVVRRGFIEKIEKKMFHFISGNN” belongs “soluble”.
As for “GSPGIHMLGGSSDAGLATAAARGQVETVRQLLEAGADPNALNRFGRRPIQVMMMGSAQVAELLLLHGAEPNCADPATLTRPVHDAAREGFLDTLVVLHRAGARLDVCDAWGRLPVDLAEEQGHRDIARYLHAATGD”, the entry is “soluble”.
In the case of “MNSSSASIPRTAHAAVPTAHASRYLQQLCKHWAHKFEAEFDPIQARIALPLGEARLTARPDALLIDLTATDAANMTTFQQVVISHIERFAFREELRFVWG”, the “soluble on expression in E. coli” value is on record as “not soluble”.
As for “PQFGLFSKYRTPNCSQYRLPGCPRHFNPVCGSDMSTYANECTLCMKIREGGHNIKIIRNGPC”, the entry is “soluble”; as for “MDGQADGMFIDRAEDARKQEITEQYLNFLDNQADTFHYRQKIVKMMNDGESRLVMNLDEIREILPERAEGLLTQSVLEMNCLQSALQMAINRSDVQAVVKTGFHVGFEGTFGERHVNPRTLKSSYLGNLVCCEGIVTKCSTVRQKLLTSVHYCPATNKVLEKKFADFTMLDTAVTNNNYPTEDENKNPLETEFGHSVYKDHQTFTIQELPESAPAGQLPRAVDCVADLDLADRVKPGDRVRIIGVFRVLPNKQNGVSSGSFRSIIIINHIQMLSKEVIPNFEPQDVKDVRKISKSRNPFELLARSLAPSICGHEETKKALLCLLLGGMEKILNNGSRLRGDINVLLIGDPSVAKSQLLRYVLRMAPRAITTTGRGSSGVGLTAAVTTDPDSGERRLEAGAMVLADRGVVCIDEFDKMSDIDRTAIHEVMEQGRVTISKAGIHAKLNARCSVLAAANPVYGRYNPFKSPMENIGMQDSLLSRFDLIFVLLDEHDADKDANVAEHVLKLHTYRTQGEADGTVLPMGGGVETISTINMETKKASSSIYEENTQWAGIQDTKILTMDFMRKYIHLARSVQPKLTDEATEYISEVYADIRSFDITKTDQERTMPVTARQLETLIRLSTAIAKARFSKKVEREDTEKAYNLLHFACFKEKPKARQEYEKKKRAPRIDGDDDEDQSDNEDMATSEEPQSSSVPTAATPRRGVRRRAEDDDSQDSMMDTTIGESQPTAKKARTGPAAIGVDRYKELRKYVRKAFDDIGSTDDMVELQIITDSVQTQAGSHKFTEDELKAGYEQLENDNAAMIAEDKITLI”, “not soluble”.
On to “MGSDKIHHHHHHMLHPIILAGGVTQTSEWSTGVCHLALETAPGVPSRFEGVLDAMSGDVFADPVVVTTRDNMSLVERQIAARPAALIVEPETHKPAAALLSAVLSLRHMPGALVVVAPATANLADTRNLDKALCNAIPAAQRGEIVMFGQRTTRAYGGFGIMEVVTQPHENAPVAVSRVLASGRKVTLSHLLHGNHQLWGTGLYLARVDVLLAAFKSHASRLFLPVKNALLRAGTVDRTTLLDRATYRRVKAITFEKAVAEKIENICAIQLDPTWSALEEWDQDAAADSAVAQWDEDLAQERAGVLNARAAAPFPHSADMMAVYASLSKISAEDALSAHATEYDWGRLESLAMGPGFTLQRMSIAPGATLDLNAAPGGAEHWIVAQGSVLITIGDHVRLVWEGHSARIPAGRSRRIENPGSGTLVLVQLQVMPLSATGQPQSAASFSPAGVA”, for which the “soluble on expression in E. coli” value is “not soluble”.
In the case of “MSVASLPECVKNFFPTEQLEFSSSITADEKPVLHEVFQKHSCFSQCGEMIDEVSKKHPELGKRLATVLEGNKKRLDGLSPAAVEYAKKLIHMVTTTLCSLTVGKPIDDADAKRLHQEFQSLSSEDQAALRKNNPDIKF”, the “soluble on expression in E. coli” value is recorded as “not soluble”.
Consider “MSLKMSDIAKMAGVSKAAVSFALNGKPGVSDETRKKIFKVIKDQGYEPLRKHKKGGVRKIASISLIIIQDRTGMMNRSYASLPFFDTLVSELSQNVSGAGGQMQIVNLDINHLHEGLNNEALQQSKASIVLATDLNQKQVQLINRKLRNVIFVDNYFEYIQADFVSIDNFQGAYRAGKFIVKKGYRKIGYVASNHAISNFLQRRSGFRKAMREANIQIPPEYVFSLNPTELRGSLPALFRQKNNWPEAIFCEDDYMALRLLNALTRQGIKVPQDIAVMGFDDISEDTMVIPELTTIHVPITQIVDQAINQLQCKVADTDWLPQKCFISTKLIERESEGHHHHHH”, for which the “soluble on expression in E. coli” value is reported as “not soluble”.
As for “MKFPGPLENQRLSFLLEKAITREAQMWKVNVRKMPSNQNVSPSQRDEVIQWLAKLKYQFNLYPETFALASSLLDRFLATVKAHPKYLSCIAISCFFLAAKTVEEDERIPVLKVLARDSFCGCSSSEILRMERIILDKLNWDLHTATPLDFLHIFHAIAVSTRPQLLFSLPKLSPSQHLAVLTKQLLHCMACNQLLQFRGSMLALAMVSLEMEKLIPDWLSLTIELLQKAQMDSSQLIHCRELVAHHLSTLQSSLPLNSVYVYRPLKHTLVTCDKGVFRLHPSSVPGPDFSKDNSKPEVPVRGTAAFYHHLPAASGCKQTSTKRKVEEMEVDDFYDGIKRLYNEDNVSENVGSVCGTDLSRQEGHASPCPPLQPVSVM”, the entry is “not soluble”; as for “MENIMKITIINGSPRFKKSNSEILKNYLLNFIKENEINEFFSFSIKLDDDIKTDIYNSDILIFIFPLYVDSIPANLLDLLVRFEDENVINSKTKIYCIVNNGFFEGVQNHLAISQIRCWSKKVNAQWGQGIGVGGGELLSHLKKVPLGQGPLKNLGIILEKFSKNILSLKGDEDIYINPNYPKILYFLQANISWFIEGRKNKLKFRDLFKKILEHHHHHH”, “not soluble”; as for “MRCPRCHHNNSRVIDSRQADDGRAIRRRRECENCSYRFTTFERIEAAPLLVIKKNGDREEFNRDKILRGLIRSAEKRPVAMEQMVQIVDNVENRVRSLGENEVSTTLIGEYVMEDLVNLDEIAYIRFASVYRQFKDMSVFLKELQDIVDKAKSSSPDSEN”, “not soluble”.
Regarding “MADYNIPHFQNDLGYKIIEIGVKEFMCVGATQPFDHPHIFIDMGSTDEKICPYCSTLYRYDPSLSYNQTNPTGCLYNPK”, the “soluble on expression in E. coli” value is “not soluble”.
As to “SEFKVTVCFGRTRVDVPCGDGRMKVFSLIQQAVTRYRKAVAKDPNYWIQVHRLEHGDGGILDLDDILCDVADDKDRLVAVFDEQD”, the “soluble on expression in E. coli” value is “soluble”.
As for “MARFTDKVAIITGSSNGIGRATAVLLATDGAKVTITGRDAARLEETRQAILKAGISATNVNSVVADVTTAEGQDLLISSTLDKFGKINILINNAGANIPDSQGQTRTKCSIENLTKMFQLNLQSVVEMVQKVRPHLAKTRGEIVNISSIGAGPAAQPASPYYSSAKAALDQYSRCAAIDLISEGIRINVVQPGFVSTGFSTAARGLSADESVKFYDLMGSLPHCIPAGYCGQPDHLASVIAFLVDRKVSEYIVGQTIIADGGSSLVIGCHAPRQ”, the “soluble on expression in E. coli” value is listed as “not soluble”.
Take “MKYRSVFDIIGPVMIGPSSSHTAGAARMGQVARQLFRHEPERVSISLYGSFAKTYRGHGTDVALIGGILGFETDDLRIPEALEIAKEREIEVEFIEEDANAPHPNTARIRLYKGEEEIEVVACSIGGGKIEVVELNGFDLQLSGTSPALLIVNNDRFGAIAAVASILAKHEINISTMSVSRKEKGRRALMVIETDEILADEVIEEIKAQQNICQVTIME”: the “soluble on expression in E. coli” value is on record as “not soluble”.
